Earlier results, collected in paper PMC5741096.

Columns and labels:
[1] = target: IL-2Rα/IL-2Rβ/IL-2Rγ (Mus musculus) (UniProt P01590)
[2] = target: IL-2Rβ/IL-2Rγ (Mus musculus) (UniProt P16297)
Sequence of UniProt P16297 (P16297 27-240, chain 1 of 2): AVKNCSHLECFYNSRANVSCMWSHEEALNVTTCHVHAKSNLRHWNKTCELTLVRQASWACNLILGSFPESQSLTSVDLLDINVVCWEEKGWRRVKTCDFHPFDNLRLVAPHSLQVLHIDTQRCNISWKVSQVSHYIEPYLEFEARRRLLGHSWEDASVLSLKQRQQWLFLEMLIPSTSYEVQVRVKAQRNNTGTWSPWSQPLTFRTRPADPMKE
Sequence of UniProt P16297 (P34902 23-263, chain 2 of 2, further chain): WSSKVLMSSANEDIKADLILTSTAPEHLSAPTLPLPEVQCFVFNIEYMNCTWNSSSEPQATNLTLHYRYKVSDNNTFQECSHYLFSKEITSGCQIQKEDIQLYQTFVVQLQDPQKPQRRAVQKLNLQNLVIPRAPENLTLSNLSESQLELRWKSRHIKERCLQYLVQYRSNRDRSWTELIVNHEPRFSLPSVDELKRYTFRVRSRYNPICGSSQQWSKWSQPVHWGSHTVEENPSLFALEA

Sequence of UniProt P01590 (P01590 22-236, chain 1 of 3): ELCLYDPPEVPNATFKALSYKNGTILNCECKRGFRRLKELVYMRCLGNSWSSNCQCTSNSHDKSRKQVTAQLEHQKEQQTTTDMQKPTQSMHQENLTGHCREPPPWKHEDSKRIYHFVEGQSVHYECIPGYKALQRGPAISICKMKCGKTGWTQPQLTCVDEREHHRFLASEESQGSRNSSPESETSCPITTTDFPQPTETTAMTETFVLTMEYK
Sequence of UniProt P01590 (P16297 27-240, chain 2 of 3, further chain): as the sequence (P16297 27-240, chain 1 of 2) above
Sequence of UniProt P01590 (P34902 23-263, chain 3 of 3, further chain): as the sequence (P34902 23-263, chain 2 of 2, further chain) above

Kd [1]: 0.01 nM
Kd [2]: 1 nM
Substance: IL-2 (from UniProt P04351)
